Reference: PMC3234860 (The Journal of Biological Chemistry, 2011)

Columns and labels:
native MS = biological target: the molecule itself; experiment: native MS
Sfr1 = biological target: T1, Sfr1 (S. pombe, UniProt Q9USV1 1-299); experiment: AUC
T1 sequence: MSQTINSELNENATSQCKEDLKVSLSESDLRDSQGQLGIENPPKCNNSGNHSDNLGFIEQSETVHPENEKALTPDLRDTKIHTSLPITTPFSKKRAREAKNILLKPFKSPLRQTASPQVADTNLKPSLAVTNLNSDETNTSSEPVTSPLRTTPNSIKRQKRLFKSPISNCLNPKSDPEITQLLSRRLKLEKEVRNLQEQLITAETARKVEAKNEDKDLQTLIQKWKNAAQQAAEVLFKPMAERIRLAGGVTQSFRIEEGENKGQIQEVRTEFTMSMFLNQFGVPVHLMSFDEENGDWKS

B1: Swi5 (natural protein)
chain: MEKSQLESRVHLLEQQKEQLESSLQDALAKLKNRDAKQTVQKHIDLLHTYNEIRDIALGMIGKVAEHEKCTSVELFDRFGVNGSE
stoichiometry N (native MS): 2 | stoichiometry N (Sfr1): 1 Swi5:Sfr1
